Experimental findings from article PMC314469, “Protein Interaction Networks by Proteome Peptide Scanning” (PLoS Biology, 2004) are described below.

Common to all, as to assay: SPOT array
For assay [1], the target named is T1, Rvs167 SH3 (RV167_YEAST), P39743.
T1 chain: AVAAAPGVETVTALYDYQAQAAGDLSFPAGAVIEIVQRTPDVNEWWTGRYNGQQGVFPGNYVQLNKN

Assay [2] has as its target T2, Yhr016c SH3 (YSC84_YEAST), P32793.
T2 chain: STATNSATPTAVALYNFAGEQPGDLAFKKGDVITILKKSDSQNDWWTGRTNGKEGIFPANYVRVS

Assay [3] concerns the target T3, Yfr024 SH3 (LSB3_YEAST), P43603.
T3 chain: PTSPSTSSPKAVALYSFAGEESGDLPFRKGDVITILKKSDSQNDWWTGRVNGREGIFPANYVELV

Assay [4] addresses T4, Boi2 SH3 (BOI2_YEAST), P39969.
T4 chain: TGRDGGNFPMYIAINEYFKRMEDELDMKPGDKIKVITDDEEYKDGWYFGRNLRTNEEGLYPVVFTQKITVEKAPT

Assay [5] has as its target T5, Boi1 SH3 (BOI1_YEAST), P38041.
T5 chain: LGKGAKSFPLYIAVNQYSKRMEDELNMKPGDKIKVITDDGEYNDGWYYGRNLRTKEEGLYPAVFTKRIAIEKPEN

Assay [6] concerns the target T6, amphyphisin SH3 (AMPH_HUMAN), P49418.
T6 chain: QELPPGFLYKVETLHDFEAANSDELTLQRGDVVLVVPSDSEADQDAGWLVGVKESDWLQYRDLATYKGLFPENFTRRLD

Assay [7] addresses endophilin SH3 (SH3G2_HUMAN), Q99962.

B1: YEL062W 548-561 (peptide)
chain: NLKPERPSKVSFEM
Consider B1, for which the normalised SPOT signal, Boehringer light units (BLU); mean over the file's lines of this peptide was determined as 805 in assay [1]; 1350 in assay [2]; 4070 in assay [3]; 52.6 in assay [4]; 103 in assay [5].

B2: YPL159C 186-199 (peptide)
chain: NLKPFHPPKEKSMN
Consider B2, for which the normalised SPOT signal, Boehringer light units (BLU); mean over the file's lines of this peptide in assay [1] came to 128; in assay [2], 770; in assay [3], 417; in assay [4], 72.2; in assay [5], 109.

B3: Q9Y5B0 72-85 (peptide)
chain: GSVRPARPERRLRS
For B3, the normalised SPOT signal, Boehringer light units (BLU); mean over the file's lines of this peptide came out at 12500 in assay [6] and 18700 in assay [7].

B4: YBR239C 90-103 (peptide)
chain: NIQPDLPPRKIMIP
Turning to B4, the normalised SPOT signal, Boehringer light units (BLU); mean over the file's lines of this peptide in assay [1] is 33000; in assay [2], 56900; in assay [3] it was 27200; in assay [4], 111; in assay [5] it was 1500.

B5: YGL076C 93-106 (peptide)
chain: NKIPPKPRKVLQLL
On to B5, for which the normalised SPOT signal, Boehringer light units (BLU); mean over the file's lines of this peptide in assay [1] was determined as 188; in assay [2], 172; in assay [3] it was 1730; in assay [4] it was 99.5; in assay [5] it was 63.6.

B6: CAD38936 189-203 (peptide)
chain: GDAPPPRPPPPVRP
Take B6: the normalised SPOT signal, Boehringer light units (BLU); mean over the file's lines of this peptide in assay [6] is 1250; in assay [7], 14700.

B7: O15417 267-280 (peptide)
chain: GAKGPRRPGEEAEL
Turning to B7, the results for the normalised SPOT signal, Boehringer light units (BLU); mean over the file's lines of this peptide in assay [6] and in assay [7] were 0 and 39.5, respectively.

B8: Q9BYB0 718-731 (peptide)
chain: GAPGPRRPFQQKPL
For B8, the normalised SPOT signal, Boehringer light units (BLU); mean over the file's lines of this peptide in assay [6] was determined as 6.3; in assay [7], 2000.

B9: P35568 971-984 (peptide)
chain: GAASISRPTRAVPS
For the molecule B9, the results for the normalised SPOT signal, Boehringer light units (BLU); mean over the file's lines of this peptide in assay [6] and in assay [7] were 957 and 202, respectively.

B10: CAD39032 203-217 (peptide)
chain: AKLFPGRPPVKKLL
As to B10, the normalised SPOT signal, Boehringer light units (BLU); mean over the file's lines of this peptide in assay [6] amounted to 93.5; in assay [7], 13400.

B11: YHL023C 782-795 (peptide)
chain: NIQPNIPLRSYRYL
As to B11, the normalised SPOT signal, Boehringer light units (BLU); mean over the file's lines of this peptide in assay [1] is 915; in assay [2], 5920; in assay [3], 19500; in assay [4] it was 760; in assay [5], 13200.

B12: Q92529 130-143 (peptide)
chain: GDEPLPRPPRGAPH
As to B12, the normalised SPOT signal, Boehringer light units (BLU); mean over the file's lines of this peptide worked out at 155 in assay [6] and 253 in assay [7].

B13: Q9BWN1 26-39 (peptide)
chain: GARSPKRPRLQLPG
For B13, the normalised SPOT signal, Boehringer light units (BLU); mean over the file's lines of this peptide amounted to 18.6 in assay [6] and 1210 in assay [7].

B14: YDR499W 189-202 (peptide)
chain: NMVPLNPNRIIPDE
With B14, the normalised SPOT signal, Boehringer light units (BLU); mean over the file's lines of this peptide in assay [1] turned out to be 340; in assay [2], 504; in assay [3], 1110; in assay [4] it was 143; in assay [5], 31.3.

B15: Q96AA2 6283-6296 (peptide)
chain: GAGQPRRPEAEPGQ
Turning to B15, the normalised SPOT signal, Boehringer light units (BLU); mean over the file's lines of this peptide in assay [6] is 10.5; in assay [7] it was -0.

B16: YDR181C 326-339 (peptide)
chain: NKVPTNPKKFKKAP
As for B16, the normalised SPOT signal, Boehringer light units (BLU); mean over the file's lines of this peptide in assay [1] was found to be 20.2; in assay [2] it was 210; in assay [3] it was 178; in assay [4], 70.3; in assay [5] it was 126.

B17: Q9UHX5 114-127 (peptide)
chain: GALHPPRPGRGLGQ
As for B17, the values for the normalised SPOT signal, Boehringer light units (BLU); mean over the file's lines of this peptide in assay [6] and in assay [7] were 441 and 78.6, respectively.

B18: Q9P244 448-461 (peptide)
chain: GDPAPSRPLRAHFL
As to B18, the normalised SPOT signal, Boehringer light units (BLU); mean over the file's lines of this peptide in assay [6] is 9150; in assay [7], 5050.

B19: BAC04581 11-25 (peptide)
chain: GAGSPARPPSPRLD
Consider B19, for which the normalised SPOT signal, Boehringer light units (BLU); mean over the file's lines of this peptide in assay [6] worked out at 339; in assay [7] it was 15300.

B20: YDL046W 61-74 (peptide)
chain: NLDPNPPVRGENLT
On to B20, for which the normalised SPOT signal, Boehringer light units (BLU); mean over the file's lines of this peptide was determined as 26.6 in assay [1]; 315 in assay [2]; 118 in assay [3]; 18.3 in assay [4]; 81.4 in assay [5].

B21: Q96LA8 243-256 (peptide)
chain: GEDVLARPQRFAQL
As for B21, the normalised SPOT signal, Boehringer light units (BLU); mean over the file's lines of this peptide in assay [6] worked out at 194; in assay [7] it was 7.6.

B22: Q9NXX3 159-172 (peptide)
chain: GAWPLKRPGRISSQ
B22: the normalised SPOT signal, Boehringer light units (BLU); mean over the file's lines of this peptide was determined as 1500 in assay [6] and 213 in assay [7].

B23: Q9Y6N3 202-215 (peptide)
chain: GASSIARPFRRDSQ
Regarding B23, the normalised SPOT signal, Boehringer light units (BLU); mean over the file's lines of this peptide in assay [6] came out at 671; in assay [7], 120.

B24: O60560 190-203 (peptide)
chain: GAFQPGRPLRVVAT
B24: the figures for the normalised SPOT signal, Boehringer light units (BLU); mean over the file's lines of this peptide in assay [6] and in assay [7] were 1260 and 148, respectively.

B25: O94820 218-231 (peptide)
chain: GDSKLFRPRRPRSS
Turning to B25, the figures for the normalised SPOT signal, Boehringer light units (BLU); mean over the file's lines of this peptide in assay [6] and in assay [7] were 970 and 233, respectively.

B26: Q9NYR0 415-428 (peptide)
chain: GALPPRRPERPVGP
For the molecule B26, the figures for the normalised SPOT signal, Boehringer light units (BLU); mean over the file's lines of this peptide in assay [6] and in assay [7] were 3480 and 13800, respectively.

B27: O75077 489-502 (peptide)
chain: GASLFNRPTKLFEP
With B27, the normalised SPOT signal, Boehringer light units (BLU); mean over the file's lines of this peptide was determined as 59.5 in assay [6] and 66.2 in assay [7].
